Laboratory results as given in patent publication US7375083B2, “Pharmaceutical compositions for prevention of overdose or abuse” (Shire LLC, priority 2003, dated 2008).
Where a SMILES comes first, the peptide text is derived from it. The star is where a group is joined. X1 = COc1ccc2c3c1O[C@H]1C(O*)=CC[C@H]4[C@@H](C2)N(C)CC[C@]314

Assays:
[1] = Oral bioavailability of hydrocodone conjugates in rats, LC/MS/MS; settings: for Percent Decrease 1 mg/kg vs. 5 mg/kg AUC / Percent Decrease 1 mg/kg vs. 5 mg/kg Cmax: oral bioavailability; for hydrocodone plus hydromorphone concentration / AUC (ng/ml h) 0-8 h / Cmax / Percent HC (AUC) / Percent HC (Cmax) / Peak levels and bioavailability: oral; for AUC (ng/ml h) 0-8 h / Cmax: hydrocodone plus hydromorphone; for Percent HC (AUC) / Percent HC (Cmax): relative to hydrocodone bitartrate; for Peak levels and bioavailability: rat, 5 mg/kg
[2] = Intranasal bioavailability of hydrocodone conjugates in rats, LC/MS/MS; settings: intranasal, 1 mg/kg dose; for AUC (ng/ml h) 0-1 h / Cmax: hydrocodone plus hydromorphone; for Percent HC (AUC) / Percent HC (Cmax): relative to hydrocodone bitartrate
[3] = Intravenous bioavailability of hydrocodone conjugates in rats, LC/MS/MS; settings: intravenous, 1 mg/kg dose
[4] = relative to hydrocodone bitartrate

Compound: CC[C@H](C)[C@H](NC(=O)[C@H](CC(=O)O)NC(=O)[C@@H](N)CC(=O)O)C(=O)OC1=CC[C@H]2[C@H]3Cc4ccc(OC)c5c4[C@@]2(CCN3C)[C@H]1O5 [DDI-HC, Asp-Asp-Ile-Hydrocodone]
- Percent Decrease 1 mg/kg vs. 5 mg/kg AUC [1]: 9%
- Percent Decrease 1 mg/kg vs. 5 mg/kg Cmax [1]: 9%
- hydrocodone plus hydromorphone concentration ([1]; 1 mg/kg dose, 0.5 Hours): 14.9 ng/mL
- hydrocodone plus hydromorphone concentration ([1]; 1 mg/kg dose, 1.5 Hours): 5 ng/mL
- hydrocodone plus hydromorphone concentration ([1]; 1 mg/kg dose, 3 Hours): 0 ng/mL
- hydrocodone plus hydromorphone concentration ([1]; 1 mg/kg dose, 5 Hours): 0 ng/mL
- hydrocodone plus hydromorphone concentration ([1]; 1 mg/kg dose, 8 Hours): 0 ng/mL
- AUC (ng/ml h) 0-8 h ([1]; 1 mg/kg dose): 0.0174 µg·h/mL
- Cmax ([1]; 1 mg/kg dose): 0.0149 µg/mL
- Percent HC (AUC) ([1]; 1 mg/kg dose): 124%
- Percent HC (Cmax) ([1]; 1 mg/kg dose): 173%
- hydrocodone plus hydromorphone concentration ([1]; 5 mg/kg dose, 0.5 Hours): 115 ng/mL
- hydrocodone plus hydromorphone concentration ([1]; 5 mg/kg dose, 1.5 Hours): 19 ng/mL
- hydrocodone plus hydromorphone concentration ([1]; 5 mg/kg dose, 3 Hours): 11 ng/mL
- hydrocodone plus hydromorphone concentration ([1]; 5 mg/kg dose, 5 Hours): 4 ng/mL
- hydrocodone plus hydromorphone concentration ([1]; 5 mg/kg dose, 8 Hours): 3.1 ng/mL
- AUC (ng/ml h) 0-8 h ([1]; 5 mg/kg dose): 0.145 µg·h/mL
- Cmax ([1]; 5 mg/kg dose): 0.115 µg/mL
- Percent HC (AUC) ([1]; 5 mg/kg dose): 113%
- Percent HC (Cmax) ([1]; 5 mg/kg dose): 158%
- Peak levels and bioavailability [1]: substantially decreased
- hydrocodone plus hydromorphone concentration ([2]; 5 Minutes): 281 ng/mL
- hydrocodone plus hydromorphone concentration ([2]; 15 Minutes): 121 ng/mL
- hydrocodone plus hydromorphone concentration ([2]; 30 Minutes): 64 ng/mL
- hydrocodone plus hydromorphone concentration ([2]; 60 Minutes): 16 ng/mL
- AUC (ng/ml h) 0-1 h [2]: 0.088 µg·h/mL
- Cmax [2]: 0.281 µg/mL
- Percent HC (AUC) [2]: 31%
- Percent HC (Cmax) [2]: 51%

Compound: CC[C@H](C)[C@H](NC(=O)[C@H](Cc1ccccc1)NC(=O)[C@H](Cc1ccccc1)NC(=O)[C@H](CCC(=O)O)NC(=O)[C@@H](N)CCC(=O)O)C(=O)OC1=CC[C@H]2[C@H]3Cc4ccc(OC)c5c4[C@@]2(CCN3C)[C@H]1O5 [EEFFI[SEQ ID NO: 5]-HC, Glu-Glu-Phe-Phe-Ile[SEQ ID NO: 5]-Hydrocodone] (H-EEFFI-X1)
- Percent Decrease 1 mg/kg vs. 5 mg/kg AUC [1]: 70%
- Percent Decrease 1 mg/kg vs. 5 mg/kg Cmax [1]: 65%
- hydrocodone plus hydromorphone concentration ([1]; 1 mg/kg dose, 0.5 Hours): 12.9 ng/mL
- hydrocodone plus hydromorphone concentration ([1]; 1 mg/kg dose, 1.5 Hours): 5.2 ng/mL
- hydrocodone plus hydromorphone concentration ([1]; 1 mg/kg dose, 3 Hours): 4.2 ng/mL
- hydrocodone plus hydromorphone concentration ([1]; 1 mg/kg dose, 5 Hours): 0 ng/mL
- hydrocodone plus hydromorphone concentration ([1]; 1 mg/kg dose, 8 Hours): 1.6 ng/mL
- AUC (ng/ml h) 0-8 h ([1]; 1 mg/kg dose): 0.0258 µg·h/mL
- Cmax ([1]; 1 mg/kg dose): 0.0129 µg/mL
- Percent HC (AUC) ([1]; 1 mg/kg dose): 135%
- Percent HC (Cmax) ([1]; 1 mg/kg dose): 136%
- hydrocodone plus hydromorphone concentration ([1]; 5 mg/kg dose, 0.5 Hours): 44 ng/mL
- hydrocodone plus hydromorphone concentration ([1]; 5 mg/kg dose, 1.5 Hours): 6.5 ng/mL
- hydrocodone plus hydromorphone concentration ([1]; 5 mg/kg dose, 3 Hours): 5.7 ng/mL
- hydrocodone plus hydromorphone concentration ([1]; 5 mg/kg dose, 5 Hours): 4.2 ng/mL
- hydrocodone plus hydromorphone concentration ([1]; 5 mg/kg dose, 8 Hours): 4.5 ng/mL
- AUC (ng/ml h) 0-8 h ([1]; 5 mg/kg dose): 0.068 µg·h/mL
- Cmax ([1]; 5 mg/kg dose): 0.044 µg/mL
- Percent HC (AUC) ([1]; 5 mg/kg dose): 41%
- Percent HC (Cmax) ([1]; 5 mg/kg dose): 47%
- Peak levels and bioavailability [1]: substantially decreased
- hydrocodone plus hydromorphone concentration ([3]; 5 Minutes): 89 ng/mL
- hydrocodone plus hydromorphone concentration ([3]; 15 Minutes): 76 ng/mL
- hydrocodone plus hydromorphone concentration ([3]; 30 Minutes): 78 ng/mL
- hydrocodone plus hydromorphone concentration ([3]; 60 Minutes): 66 ng/mL
- AUC (ng/ml h) 0-1 h ([3]; hydrocodone plus hydromorphone): 0.066 µg·h/mL
- Cmax ([3]; hydrocodone plus hydromorphone): 0.089 µg/mL
- Percent HC (AUC) [3, 4]: 38%
- Percent HC (Cmax) [3, 4]: 44%

Compound: CC[C@H](C)[C@H](NC(=O)[C@H](Cc1ccccc1)NC(=O)[C@H](Cc1ccccc1)NC(=O)[C@H](Cc1ccc(O)cc1)NC(=O)[C@@H](N)Cc1ccc(O)cc1)C(=O)OC1=CC[C@H]2[C@H]3Cc4ccc(OC)c5c4[C@@]2(CCN3C)[C@H]1O5 [YYFFI[SEQ ID NO: 3]-HC] (H-YYFFI-X1)
- hydrocodone plus hydromorphone concentration ([2]; 5 Minutes): 28 ng/mL
- hydrocodone plus hydromorphone concentration ([2]; 15 Minutes): 27 ng/mL
- hydrocodone plus hydromorphone concentration ([2]; 30 Minutes): 16 ng/mL
- hydrocodone plus hydromorphone concentration ([2]; 60 Minutes): 21 ng/mL
- AUC (ng/ml h) 0-1 h [2]: 0.02 µg·h/mL
- Cmax [2]: 0.028 µg/mL
- Percent HC (AUC) [2]: 100%
- Percent HC (Cmax) [2]: 5%
